The results in this text go back to paper PMC8510580, “HspB8 prevents aberrant phase transitions of FUS by chaperoning its folded RNA-binding domain” (eLife, 2021).

As usually defined, the Kd is the constant that tells how readily two partners part at equilibrium. Higher therefore signals a looser complex.

The chains are these.
B1: HspB8-WT (natural protein, UniProt Q9UJY1 1-196, looked up)
chain: MADGQMPFSCHYPSRLRRDPFRDSPLSSRLLDDGFGMDPFPDDLTASWPDWALPRLSSAWPGTLRSGMVPRGPTATARFGVPAEGRTPPPFPGEPWKVCVNVHSFKPEELMVKTKDGYVEVSGKHEEKQQEGGIVSKNFTKKIQLPAEVDPVTVFASLSPEGLLIIEAPQVPPYSTFGESSFNNELPQDSQEVTCT
notes: small heat shock protein HspB8; IDR printed as AA1-71 and alpha-crystallin domain as AA72-196; The article's keywords name Human as organism; also called small heat shock protein HspB8; source: E. coli BL21 Codon RIL, purified (GST, PreScission cleavage, reverse GST, ResourceQ); not shown: GST, N-terminal, cleaved
B2: HspB8-K141E (natural protein, UniProt Q9UJY1 1-196, looked up)
chain: B1 chain with K141E
notes: small heat shock protein HspB8 with the Charcot-Marie Tooth disease-associated mutation K141E in the alpha-crystallin domain; Same construct as m2 with K141E; also called K141E mutant; HspB8-K141E mutant; source: E. coli BL21 Codon RIL, purified (GST, PreScission cleavage, reverse GST, ResourceQ); not shown: GST, N-terminal, cleaved
B3: FUS-G156E-GFP (FUSm) (natural protein, human, UniProt P35637 1-526, looked up)
chain: MASNDYTQQATQSYGAYPTQPGQGYSQQSSQPYGQQSYSGYSQSTDTSGYGQSSYSSYGQSQNTGYGTQSTPQGYGSTGGYGSSQSSQSSYGQQSSYPGYGQQPAPSSTSGSYGSSSQSSSYGQPQSGSYSQQPSYGGQQQSYGQQQSYNPPQGYEQQNQYNSSSGGGGGGGGGGNYGQDQSSMSSGGGSGGGYGNQDQSGGGGSGGYGQQDRGGRGRGGSGGGGGGGGGGYNRSSGGYEPRGRGGGRGGRGGMGGSDRGGFNKFGGPRDQGSRHDSEQDNSDNNTIFVQGLGENVTIESVADYFKQIGIIKTNKKTGQPMINLYTDRETGKLKGEATVSFDDPPSAKAAIDWFDGKEFSGNPIKVSFATRRADFNRGGGNGRGGRGRGGPMGRGGYGGGGSGGGGRGGFPSGGGGGGGQQRAGDWKCPNPTCENMNFSWRNECNQCKAPKPDGPGGGPGGSHMGGNYGDDRRGGRGGYDRGGYRGRGGDRGGFRGGRGGGDRGGFGPGKMDSRGEHRQDRRERPY
notes: FUS (fused in sarcoma), human, UniProt P35637, with G156E; also called FUSm-GFP; source: Sf9 cells, purified as described (Patel et al., 2015); not shown: 5 AA tag used for purification, N-terminal, kept; GFP, C-terminal, kept

The data set “FUS-G156E-GFP (FUSm)” concerns the target B3. In words: cross-linking; XL-MS of FUSm (or FUSm_K9) mixed with the partner under condensate-inducing low salt (75 mM): low-salt mixture or dense phase separated by centrifugation; H12/D12 DSS, 30 min, 37°C; also 3 hr after formation and with an RNA oligonucleotide. The following applies: both partners purified.
In a further data set the target is T1, Taf-15 (UniProt Q92804 1-592).
T1 construct: stress granule protein Taf-15; no methods for its production; also called stress granule protein Taf-15
T1 sequence (Q92804 whole entry): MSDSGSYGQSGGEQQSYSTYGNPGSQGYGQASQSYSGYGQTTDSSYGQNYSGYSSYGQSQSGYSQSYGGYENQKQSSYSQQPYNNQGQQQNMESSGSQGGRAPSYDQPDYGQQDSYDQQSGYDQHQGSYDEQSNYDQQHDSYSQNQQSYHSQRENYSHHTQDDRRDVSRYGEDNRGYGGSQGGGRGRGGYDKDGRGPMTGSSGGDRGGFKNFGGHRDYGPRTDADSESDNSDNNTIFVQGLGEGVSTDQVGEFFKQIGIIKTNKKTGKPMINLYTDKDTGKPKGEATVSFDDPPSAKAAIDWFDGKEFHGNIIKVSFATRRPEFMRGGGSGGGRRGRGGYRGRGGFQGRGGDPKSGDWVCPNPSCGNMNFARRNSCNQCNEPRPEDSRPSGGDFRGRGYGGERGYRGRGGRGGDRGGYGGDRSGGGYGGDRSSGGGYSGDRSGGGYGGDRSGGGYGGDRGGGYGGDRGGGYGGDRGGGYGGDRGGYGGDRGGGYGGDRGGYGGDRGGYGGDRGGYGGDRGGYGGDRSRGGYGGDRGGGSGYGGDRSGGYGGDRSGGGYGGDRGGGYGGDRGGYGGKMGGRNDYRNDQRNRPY
As to the kind of experiment: MST; 33 nM FUSm, partner titrated; non-phase separating conditions (500 mM KCl). Conditions: both partners purified.

Data set [1] concerns the molecule itself. In words: cross-linking; quantitative XL-MS of FUSm alone: low salt (75 mM KCl, condensates) against high salt (500 mM KCl, no phase separation); 1.9 mM H12/D12 DSS, 30 min, 37°C.

Changes are numbered by the printed parent chain. Names and notes keep the numbering of the source.

With B1, the binding result in the data set with FUS-G156E-GFP (FUSm) is on record as “binds”.

Regarding B2, the binding result in the data set with FUS-G156E-GFP (FUSm) is on record as “binds”.

In the data set with Taf-15, B3 gave a Kd of 260 nM. Moreover, the binding result in data set [1] is given as “binds”.
